From PMC7060200, “Selective Binding of HSC70 and its Co-Chaperones to Structural Hotspots on CFTR” (Scientific Reports, 2020) come the findings set out here.

The target in assay [1] is DNAJA1 (DJA1), His-tagged (UniProt P31689). Briefly: ELISA; competition: 1 μM chaperone mixed with soluble peptide (titrated up to 100 μM, or fixed 100 μM in the screens) and bound to immobilised 1097-L; Kd of the competing peptide from linearised competition curves. In general terms: In an ELISA, binding on a coated surface is turned into a signal by an enzyme label.
In assay [2] the target is DNAJA2 (DJA2), His-tagged (UniProt O60884). Described as above.
Sequence of DNAJA2 (DJA2), His-tagged (UniProt O60884) (O60884 whole entry): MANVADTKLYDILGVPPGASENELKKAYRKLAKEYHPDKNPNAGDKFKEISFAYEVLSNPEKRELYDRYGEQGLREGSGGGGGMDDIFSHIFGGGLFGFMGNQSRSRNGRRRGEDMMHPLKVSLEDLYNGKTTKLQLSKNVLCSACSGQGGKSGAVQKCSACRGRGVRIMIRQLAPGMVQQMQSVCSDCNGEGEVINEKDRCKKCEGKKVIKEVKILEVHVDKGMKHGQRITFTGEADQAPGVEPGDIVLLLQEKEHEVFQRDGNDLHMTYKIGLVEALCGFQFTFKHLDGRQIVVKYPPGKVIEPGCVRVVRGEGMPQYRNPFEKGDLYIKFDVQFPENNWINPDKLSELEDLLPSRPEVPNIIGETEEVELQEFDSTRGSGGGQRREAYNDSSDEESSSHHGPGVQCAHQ
In assay [3] the target is HSC70 (HSPA8), His-tagged (UniProt P11142). The assay is described as above.
Sequence of HSC70 (HSPA8), His-tagged (UniProt P11142) (P11142 whole entry): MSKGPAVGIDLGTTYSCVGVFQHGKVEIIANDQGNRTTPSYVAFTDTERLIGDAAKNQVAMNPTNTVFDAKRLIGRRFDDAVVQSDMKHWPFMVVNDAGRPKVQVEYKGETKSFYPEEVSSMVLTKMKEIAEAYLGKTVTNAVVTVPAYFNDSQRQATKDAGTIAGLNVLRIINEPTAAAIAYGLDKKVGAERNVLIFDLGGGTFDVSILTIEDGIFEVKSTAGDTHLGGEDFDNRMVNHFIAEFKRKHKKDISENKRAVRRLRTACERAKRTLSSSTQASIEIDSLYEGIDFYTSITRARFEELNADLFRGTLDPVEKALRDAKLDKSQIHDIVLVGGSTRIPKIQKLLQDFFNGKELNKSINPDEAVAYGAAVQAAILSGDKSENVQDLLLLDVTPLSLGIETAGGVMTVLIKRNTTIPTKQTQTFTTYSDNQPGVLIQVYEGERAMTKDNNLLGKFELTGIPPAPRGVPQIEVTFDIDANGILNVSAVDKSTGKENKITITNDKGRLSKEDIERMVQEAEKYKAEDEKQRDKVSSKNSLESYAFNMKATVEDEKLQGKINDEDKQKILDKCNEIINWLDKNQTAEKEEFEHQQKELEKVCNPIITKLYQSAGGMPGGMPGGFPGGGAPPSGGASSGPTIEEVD
For assay [4], the target named is CFTR peptide 1097-L, biotinylated (library form) (UniProt P13569). The assay can be described thus: ELISA; titration of increasing concentrations of chaperone on immobilised biotinylated peptide; HSC70 with ATP; apparent Kd from linearised binding curves.
Assay [5] deals with Fluorescent peptide FAM-1092-S (UniProt P13569). Briefly: other fluorescence titration; 0.5 μM FAM-1092-S with varying concentrations of chaperone, 45 min; HSC70 in buffer G, DJA1 and DJA2 in buffer H; excitation 492 nm, emission 520 nm; one site total binding fit.
Sequence of Fluorescent peptide FAM-1092-S (P13569 whole entry, looked up, tested part not stated): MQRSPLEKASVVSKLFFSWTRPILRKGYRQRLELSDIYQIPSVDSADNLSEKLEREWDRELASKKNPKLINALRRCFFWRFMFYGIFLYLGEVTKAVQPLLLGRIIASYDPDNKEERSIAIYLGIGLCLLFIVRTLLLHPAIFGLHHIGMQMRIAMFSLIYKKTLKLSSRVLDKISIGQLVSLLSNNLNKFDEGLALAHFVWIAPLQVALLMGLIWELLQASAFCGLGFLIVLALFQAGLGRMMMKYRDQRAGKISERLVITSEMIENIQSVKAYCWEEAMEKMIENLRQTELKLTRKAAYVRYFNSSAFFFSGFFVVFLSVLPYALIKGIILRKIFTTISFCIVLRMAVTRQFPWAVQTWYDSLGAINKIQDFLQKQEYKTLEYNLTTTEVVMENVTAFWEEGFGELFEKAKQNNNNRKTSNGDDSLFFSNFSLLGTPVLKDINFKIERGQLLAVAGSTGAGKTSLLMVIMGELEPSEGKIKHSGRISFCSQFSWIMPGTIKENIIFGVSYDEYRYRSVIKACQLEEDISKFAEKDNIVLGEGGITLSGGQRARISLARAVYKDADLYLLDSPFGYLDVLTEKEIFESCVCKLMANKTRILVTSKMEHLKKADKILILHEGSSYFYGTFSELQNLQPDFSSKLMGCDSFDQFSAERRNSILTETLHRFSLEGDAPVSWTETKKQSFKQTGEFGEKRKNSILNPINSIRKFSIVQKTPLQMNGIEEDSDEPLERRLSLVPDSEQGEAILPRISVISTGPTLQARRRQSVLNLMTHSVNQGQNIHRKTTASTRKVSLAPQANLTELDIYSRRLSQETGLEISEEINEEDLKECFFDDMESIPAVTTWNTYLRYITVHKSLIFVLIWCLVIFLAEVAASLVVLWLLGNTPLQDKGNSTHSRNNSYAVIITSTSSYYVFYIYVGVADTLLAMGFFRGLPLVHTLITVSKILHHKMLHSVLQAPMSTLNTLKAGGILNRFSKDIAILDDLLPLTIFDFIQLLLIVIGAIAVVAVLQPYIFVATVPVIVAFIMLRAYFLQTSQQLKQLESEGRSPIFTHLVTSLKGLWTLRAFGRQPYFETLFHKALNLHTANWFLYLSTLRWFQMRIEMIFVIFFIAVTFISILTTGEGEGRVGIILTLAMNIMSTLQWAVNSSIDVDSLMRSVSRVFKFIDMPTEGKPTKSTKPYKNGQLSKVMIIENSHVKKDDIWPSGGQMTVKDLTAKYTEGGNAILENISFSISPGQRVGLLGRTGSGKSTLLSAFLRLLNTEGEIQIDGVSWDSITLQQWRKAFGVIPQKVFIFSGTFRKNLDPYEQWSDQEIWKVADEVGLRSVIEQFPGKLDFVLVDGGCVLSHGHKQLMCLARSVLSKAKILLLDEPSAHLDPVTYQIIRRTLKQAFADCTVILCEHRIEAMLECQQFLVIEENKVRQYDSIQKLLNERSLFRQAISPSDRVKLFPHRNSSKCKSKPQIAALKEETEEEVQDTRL

Sequence of CFTR peptide 1092-S (P13569 whole entry, looked up, tested part not stated): as above
Sequence of DNAJA2 (DJA2), His-tagged (from UniProt O60884 1-412) (natural protein) (O60884 whole entry): as the sequence (O60884 whole entry) above
Sequence of HSC70 (HSPA8), His-tagged (from UniProt P11142 1-646) (natural protein) (P11142 whole entry): as the sequence (P11142 whole entry) above

For “CFTR peptide 1092-S (from UniProt P13569 1088-1096)”, the Kd in assay [1] is 5470 nM; in assay [2], 2620 nM; in assay [3], 1260 nM.
For “CFTR peptide 1097-L, soluble unmodified (from UniProt P13569 1090-1104)”, in that order: 2430 nM, 585 nM and 602 nM.
Consider “DNAJA1 (DJA1), His-tagged (from UniProt P31689 1-397) (natural protein)”, for which the Kd in assay [4] was 167 nM; in assay [5], 3970 nM.
As to “DNAJA2 (DJA2), His-tagged (from UniProt O60884 1-412) (natural protein)”, the Kd in assay [4] turned out to be 75 nM; in assay [5], 8460 nM.
As to “HSC70 (HSPA8), His-tagged (from UniProt P11142 1-646) (natural protein)”, the Kd turned out to be 58 nM in assay [4] and 6170 nM in assay [5].
